T1: BCMA (the 'Antigen' of the SPR antigen binding assay) (human, UniProt Q02223 1-54, limits assumed)
T1 construct: also called human BCMA
T1 sequence (looked up): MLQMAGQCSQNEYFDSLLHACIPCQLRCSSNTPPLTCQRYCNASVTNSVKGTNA

B1: purified DL4a drug-load variant of belantamab mafodotin (antibody, human IgG1, kappa)
heavy: not shown
light: not shown
modifications: mcMMAF on each LC C214 (sequential numbering); mcMMAF on each HC C224 (sequential numbering)
notes: Antibody drug conjugate, drug load of four
B2: purified DL2 drug-load variant of belantamab mafodotin (antibody, human IgG1, kappa)
heavy: not shown
light: not shown
modifications: mcMMAF on LC C214 of one of the two light chains (sequential numbering); mcMMAF on HC C224 of one of the two heavy chains (sequential numbering)
notes: Antibody drug conjugate, drug load of two; also called DL2a
B3: purified DL8 drug-load variant of belantamab mafodotin (antibody, human IgG1, kappa)
heavy: not shown
light: not shown
modifications: mcMMAF on each LC C214 (sequential numbering); mcMMAF on HC C224, HC C230 and HC C233 of both heavy chains (sequential numbering)
notes: Antibody drug conjugate, drug load of eight
B4: purified DL4b drug-load variant of belantamab mafodotin (antibody, human IgG1, kappa)
heavy: not shown
light: not shown
modifications: mcMMAF on HC C230 and HC C233 of both heavy chains (sequential numbering)
notes: Antibody drug conjugate, drug load of four at the hinge
B5: purified DL0 drug-load variant of belantamab mafodotin (unconjugated belantamab) (antibody, human IgG1, kappa)
heavy: not shown
light: not shown
notes: HIC-purified fraction of belantamab mafodotin

Tests used:
Assay in all cases: SPR, release and stability method, specific binding activity
FcRn = target: T2, FcRn (UniProt P55899 24-297; P61769 21-119, limits assumed)
T2 construct: also called FcRNn
Protocol: (§1) Antigen, FcγRIIIa, and FcRn specific binding activity of the purified DL variants was measured using SPR. Antigen, FcγRIIIa and FcRN analyses were performed using a release and stability surface plasmon resonance (SPR) method. The specific binding activities measured were between 80-110% for the purified DL variants. […] Despite the trend observed, the decrease in binding activity as a function of drug load is minimal and remains within specification acceptance criteria. It has been observed that as the DAR increases, there is no significant change in antigen FcγRIIIa binding by SPR and antibody-dependent cell-mediated cytotoxicity (ADCC) activity.

[1] = target: T1, BCMA (the 'Antigen' of the SPR antigen …)
Protocol: as §1

FcγRIIIa = target: T3, FcγRIIIa (UniProt P08637 17-208, limits assumed)
T3 construct: also called FcyRIIIa
Protocol: as §1

T3 sequence (P08637 17-208 limits assumed): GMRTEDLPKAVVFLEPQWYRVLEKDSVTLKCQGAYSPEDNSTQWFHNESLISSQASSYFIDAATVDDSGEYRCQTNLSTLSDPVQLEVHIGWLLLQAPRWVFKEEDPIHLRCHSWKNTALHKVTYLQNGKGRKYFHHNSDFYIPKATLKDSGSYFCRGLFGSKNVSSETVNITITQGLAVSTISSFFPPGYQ
T2 sequence (P55899 24-297 limits assumed, chain 1 of 2): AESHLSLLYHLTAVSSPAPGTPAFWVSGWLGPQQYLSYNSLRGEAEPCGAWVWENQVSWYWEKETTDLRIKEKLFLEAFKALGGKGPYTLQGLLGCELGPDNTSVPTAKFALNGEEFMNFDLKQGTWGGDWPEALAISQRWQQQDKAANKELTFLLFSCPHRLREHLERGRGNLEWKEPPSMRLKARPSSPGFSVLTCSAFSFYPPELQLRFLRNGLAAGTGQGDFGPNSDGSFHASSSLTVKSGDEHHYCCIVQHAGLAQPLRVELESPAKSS
T2 sequence (P61769 21-119 limits assumed, chain 2 of 2): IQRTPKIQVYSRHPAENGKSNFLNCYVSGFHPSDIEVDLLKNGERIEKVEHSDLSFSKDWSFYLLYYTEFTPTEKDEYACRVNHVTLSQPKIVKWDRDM

Row | Binder | FcRNn Binding (%) (specific binding activity) (FcRn) | Antigen Binding (%) (specific binding activity) [1] | FcyRIIIa Binding (%) (specific binding activity) (FcγRIIIa)
1 | B1 | 102 | 95 | 103
2 | B2 | 109 | 99 | 104
3 | B3 | 93 | 86 | 82
4 | B4 | 99 | 90 | 91
5 | B5 | 108 | 103 | 110

— patent publication US20240369568A1 (GlaxoSmithKline, published 2024)
